Measurements published in publication PMC10377000, “LSPR-Based Aptasensor for Rapid Urinary Detection of NT-proBNP”.

Molecular target: NT-proBNP (UniProt P16860)
Test: AuNP aggregation (LSPR, A750/A521), Hill fit; diluted urine; Hill n = 0.0751; NT-proBNP in 5 mM PBS pH 7.4; aptamer in 10 mM Tris-HCl, 0.2 mM EDTA (0.25 uM in assay); 15 min incubation; then citrate AuNPs and 40 uL 0.2 M NaCl; 25 C stated for CD sample only
Conditions: protein: commercial; antiparallel G4 proposed from CD

Chain of NT-proBNP (P16860 27-134): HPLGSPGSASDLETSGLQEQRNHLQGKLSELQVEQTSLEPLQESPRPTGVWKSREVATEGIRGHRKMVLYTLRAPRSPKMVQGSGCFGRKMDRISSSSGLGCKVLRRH

B1: NT-proBNP aptamer (structured_DNA)
DNA: GGCAGGAAGACAAACAGGTCGTAGTGAAACTGTCCACCGTAGACCGGTTATCTGTTGGTCTGTGGTGCTGT
Kd: 2.71 nM
